The text below walks through data of patent US20080280828A1.

In assay [1] the target is rat recombinant IgE (Serotech) (rat). The experiment in a line: SPR (BIAcore 2000); ratio of RBA on IgE to RBA on guinea pig IgG. (In general: In SPR one partner is held on a chip, and binding of the other changes the refractive index at the surface.)
The target in assay [2] is guinea pig IgG (Sigma) (guinea pig). As to the kind of experiment: SPR (BIAcore 2000), Ig immobilised on CM5 chip, tick sample as analyte.
Assay [3] addresses human IgG Fc fragment (ICN) (human). The description is as above.
Assay [4] concerns the target rabbit IgG F(ab')2 fragment (ICN) (rabbit). The assay is described as above.
The target of assay [5] is rat recombinant IgE (Serotech) (rat). Described as above.
The target in assay [6] is guinea pig IgG (Sigma) (guinea pig). The experiment in a line: SPR (BIAcore 2000); RBA further normalised to amount of protein against fSGED6.
Assay [7] addresses human IgG Fc fragment (ICN) (human). The assay is described as above.
The target of assay [8] is rabbit IgG F(ab')2 fragment (ICN) (rabbit). The assay is described as above.
In assay [9] the target is rat recombinant IgE (Serotech) (rat). The description is as above.
Assay [10] deals with guinea pig IgG (Sigma) (guinea pig). The experiment in a line: SPR (BIAcore 2000); normalised to binding of fSGED6 to IgG, corrected for relative molar amount of ligand.
Assay [11] has as its target human IgG Fc fragment (ICN) (human). The assay is described as above.
The target in assay [12] is rabbit IgG F(ab')2 fragment (ICN) (rabbit). The assay is described as above.
For assay [13], the target named is rat recombinant IgE (Serotech) (rat). The description is as above.
Assay [14] addresses human IgG Fc fragment (ICN) (human). As to the kind of experiment: SPR (BIAcore 2000); ratio of RBA on Fc to RBA on F(ab')2.

Chain of rat recombinant IgE (Serotech) (rat) (P01855 whole entry, the tested form may be a part): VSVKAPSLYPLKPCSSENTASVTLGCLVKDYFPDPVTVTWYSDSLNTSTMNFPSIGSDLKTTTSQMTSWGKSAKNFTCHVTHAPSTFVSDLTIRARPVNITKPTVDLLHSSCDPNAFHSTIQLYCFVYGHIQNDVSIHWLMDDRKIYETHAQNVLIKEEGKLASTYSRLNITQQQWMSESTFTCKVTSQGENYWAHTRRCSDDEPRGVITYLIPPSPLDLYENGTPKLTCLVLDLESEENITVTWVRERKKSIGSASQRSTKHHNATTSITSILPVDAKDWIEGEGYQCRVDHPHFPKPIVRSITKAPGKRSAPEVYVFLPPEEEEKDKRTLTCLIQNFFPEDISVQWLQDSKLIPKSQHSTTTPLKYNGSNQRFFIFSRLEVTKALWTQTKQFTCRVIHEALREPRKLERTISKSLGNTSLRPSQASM

Consider “partially fed (day 6) female tick salivary gland extract”, for which the RBAIgE/RBAIgG in assay [1] is 1.2. Also, the Yield-binding (RU2) in [2] was found to be 263 RU; in [3], 748 RU; in assay [4], 13 RU; in assay [5] it was 283 RU. Besides, the RBA/mg protein in [6] was 1; in assay [7], 1.1; in [8], 0; in assay [9], 1.3. The Relative binding activity (RBA) came out at 1 in assay [10], 1.1 in assay [11], 0 in assay [12] and 1.3 in assay [13].
Take “partially fed (day 6) male tick salivary gland extract”: the RBAFc/RBAF(ab′)2 in assay [14] worked out at 1.1. In assay [1], the RBAIgE/RBAIgG was 1.2. Moreover, the Yield-binding (RU2) in assay [2] is 719 RU; in assay [3], 1720 RU; in assay [4], 823 RU; in assay [5], 762 RU. The RBA/mg protein in assay [6] is 5.5; in assay [7] it was 4.9; in assay [8], 4.5; in assay [9] it was 7.3. Also, the Relative binding activity (RBA) in [10] worked out at 2.7; in assay [11], 2.4; in [12], 2.2; in assay [13], 3.6.
For the substance “partially fed (day 7), dopamine-stimulated female tick saliva”, the RBAFc/RBAF(ab′)2 in [14] was 1.1. Moreover, the RBAIgE/RBAIgG in assay [1] is 1.2. For the same substance, the Yield-binding (RU2) in [2] worked out at 5100 RU; in assay [3], 5830 RU; in assay [4], 2770 RU; in assay [5], 4960 RU. In addition, the RBA/mg protein was found to be 775 in [6], 328 in assay [7], 301 in [8] and 943 in assay [9]. Further, the Relative binding activity (RBA) in [10] was determined as 19.4; in [11], 8.2; in assay [12], 7.5; in [13], 23.6.
